In PMC11048174:

Experiments:
[1] = target: Avidin (obtained from egg white) (UniProt P02701); assay: SPR; MWCNT-Av deposited on a gold disk; 0.50 mg mL^-1 bLOx or LOx injected manually, batch conditions, 25 °C; amount from the change of the resonance angle after washing with phosphate buffer
[2] = target: Avidin (obtained from egg white) (UniProt P02701); assay: electrochemical impedance spectroscopy; MWCNT-Av on glassy carbon electrode, incubated with bLOx or LOx; charge transfer resistance of hydroquinone/benzoquinone at 0.050 V, 0.050 M phosphate buffer pH 7.40

Chain of UniProt P02701 (P02701 25-152): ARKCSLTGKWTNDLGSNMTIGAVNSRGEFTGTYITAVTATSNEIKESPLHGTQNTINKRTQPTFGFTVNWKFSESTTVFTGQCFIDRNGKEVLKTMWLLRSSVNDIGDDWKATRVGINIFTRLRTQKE

- amount immobilised (from the SPR angle change) [1]: 2600 pg mm^−2
- RCT (charge transfer resistance) after interaction [2]: 200 Ω
Substance: recombinant biotinylated lactate oxidase (enzyme)
